According to article PMC10808114, “Yeast 26S proteasome nuclear import is coupled to nucleus-specific degradation of the karyopherin adaptor protein Sts1” (Scientific Reports, 2024):

B1: Srp1-6His (natural protein, S. cerevisiae, UniProt Q02821 1-542, looked up)
chain: MDNGTDSSTSKFVPEYRRTNFKNKGRFSADELRRRRDTQQVELRKAKRDEALAKRRNFIPPTDGADSDEEDESSVSADQQFYSQLQQELPQMTQQLNSDDMQEQLSATVKFRQILSREHRPPIDVVIQAGVVPRLVEFMRENQPEMLQLEAAWALTNIASGTSAQTKVVVDADAVPLFIQLLYTGSVEVKEQAIWALGNVAGDSTDYRDYVLQCNAMEPILGLFNSNKPSLIRTATWTLSNLCRGKKPQPDWSVVSQALPTLAKLIYSMDTETLVDACWAISYLSDGPQEAIQAVIDVRIPKRLVELLSHESTLVQTPALRAVGNIVTGNDLQTQVVINAGVLPALRLLLSSPKENIKKEACWTISNITAGNTEQIQAVIDANLIPPLVKLLEVAEYKTKKEACWAISNASSGGLQRPDIIRYLVSQGCIKPLCDLLEIADNRIIEVTLDALENILKMGEADKEARGLNINENADFIEKAGGMEKIFNCQQNENDKIYEKAYKIIETYFGEEEDAVDETMAPQNAGNTFGFGSNVNQQFNFN
notes: Srp1 (Kap60, karyopherin-alpha), S. cerevisiae; pET42b-based plasmid; also called karyopherin-α; Kap60; source: also co-expressed with GST-Sts1 in E. coli extract; not shown: 6His, C-terminal, kept
B2: full-length GST-Sts1 (natural protein, S. cerevisiae, UniProt P38637 1-319, looked up)
chain: MMGFEWGFKPSSKITQSTVSSQGTGNVMIPTAGVKQKRRYANEEQEEEELPRNKNVMKYGGVSKRRPQPGSLIRGQPLPLQRGMELMNKNQLQQLLVDLMTKHPEIQQSVHTRVIGLDFSIQKCLDMLKQKSEAVYQSIPYNRSYESNKLDDYAFVRMKPQILEFLNCLVDFILDNIPPRLENLHASLKFLDICTELVIKLPRFELASNNYYYDKCIEQLSHVWCTLIEHVARDRIILLADNSSVWKSHMTRLQVYNEHSNGLLERPLQLFKSLDMGSPSAASSSTLSLQESIIYHHDTMTANENNNNSGSAATDSPFN
notes: Sts1, S. cerevisiae, full length; also called FL; not shown: GST, N-terminal, kept

Columns and labels:
[1] = target: T1, GST-cleaved Kap95 (S. cerevisiae, UniProt Q06142 1-861); experiment: pull-down; GST-Sts1 immobilised on GSH beads, incubated with equimolar Srp1-6His and GST-cleaved Kap95, 4 °C, 2 h; PBS, 0.1% Tween-20, 0.2 mM DTT, 0.2 mM PMSF; without Ran or then with four-fold molar excess of 6His-Gsp1GDP (complex largely intact); SDS-PAGE and protein staining; conditions: both partners purified
T1 construct: Kap95 (karyopherin-beta), S. cerevisiae; also called purified Kap95; untagged Kap95; source: recombinant, purified, GST cleaved
T1 sequence (looked up): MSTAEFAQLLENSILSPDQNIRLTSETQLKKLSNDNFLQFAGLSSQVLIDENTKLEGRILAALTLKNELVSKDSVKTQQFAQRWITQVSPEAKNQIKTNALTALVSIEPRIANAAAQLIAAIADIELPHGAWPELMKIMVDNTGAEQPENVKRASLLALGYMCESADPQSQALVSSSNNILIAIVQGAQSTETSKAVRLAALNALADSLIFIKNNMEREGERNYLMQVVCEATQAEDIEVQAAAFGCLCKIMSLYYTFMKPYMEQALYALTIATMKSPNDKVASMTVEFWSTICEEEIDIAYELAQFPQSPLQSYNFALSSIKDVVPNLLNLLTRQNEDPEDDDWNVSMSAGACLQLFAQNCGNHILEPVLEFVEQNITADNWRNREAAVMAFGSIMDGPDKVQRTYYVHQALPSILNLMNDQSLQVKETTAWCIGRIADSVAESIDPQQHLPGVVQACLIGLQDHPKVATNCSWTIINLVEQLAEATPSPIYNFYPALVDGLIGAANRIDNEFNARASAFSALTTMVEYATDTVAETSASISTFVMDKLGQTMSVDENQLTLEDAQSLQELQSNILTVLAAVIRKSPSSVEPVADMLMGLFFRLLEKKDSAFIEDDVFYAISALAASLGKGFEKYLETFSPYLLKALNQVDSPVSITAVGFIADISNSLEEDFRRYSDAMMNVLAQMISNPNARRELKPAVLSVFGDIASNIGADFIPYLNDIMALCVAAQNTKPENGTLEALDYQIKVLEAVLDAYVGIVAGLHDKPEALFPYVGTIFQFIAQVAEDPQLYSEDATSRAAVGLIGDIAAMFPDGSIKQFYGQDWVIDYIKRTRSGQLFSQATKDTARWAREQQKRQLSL

[2] = target: B1; experiment: as above; conditions: both partners purified

Row | Binder | binding result [1] | binding result [2]
1 | B1 | binds | –
2 | B2 | binds | binds
